Results published in US20100196266A1 (published 2010).

Experiments:
[1] = biological target: T1, human leukocyte antigen-DR (HLA-DR) on human lymphoma and leukemia cell lines and human lymphocytes (human); experiment: indirect FACS, FITC-GAH Fc, Namalwa cells; none 2.5
[2] = biological target: T1, human leukocyte antigen-DR (HLA-DR) on …; experiment: indirect flow cytometry, FITC-GAH Fc, Daudi cells; none 3.2
[3] = biological target: T1, human leukocyte antigen-DR (HLA-DR) on …; experiment: indirect flow cytometry, FITC-GAH Fc, Raji cells; none 6.9
[4] = biological target: T1, human leukocyte antigen-DR (HLA-DR) on …; experiment: indirect flow cytometry, FITC-GAH Fc, Ramos cells; none 3.1
[5] = biological target: T1, human leukocyte antigen-DR (HLA-DR) on …; experiment: indirect FACS, FITC-GAH Fc, WSU-FSCCL cells; none 2.6
[6] = biological target: T1, human leukocyte antigen-DR (HLA-DR) on …; experiment: indirect flow cytometry, FITC-GAH Fc, WSU-FSCCL cells; none 2.7
[7] = biological target: T1, human leukocyte antigen-DR (HLA-DR) on …; experiment: indirect flow cytometry, FITC-GAH Fc, SU-DHL-6 cells; none 4.6
[8] = biological target: T1, human leukocyte antigen-DR (HLA-DR) on …; experiment: indirect flow cytometry, FITC-GAH Fc, RL cells; none 2.4
[9] = biological target: T1, human leukocyte antigen-DR (HLA-DR) on …; experiment: indirect flow cytometry, FITC-GAH Fc, Namalwa cells; none 2.6
[10] = biological target: T1, human leukocyte antigen-DR (HLA-DR) on …; experiment: indirect FACS, FITC-GAH Fc, Ramos cells; none 3.1
[11] = biological target: T1, human leukocyte antigen-DR (HLA-DR) on …; experiment: indirect FACS, FITC-GAH Fc, SU-DHL-6 cells; none 4.6
[12] = biological target: T1, human leukocyte antigen-DR (HLA-DR) on …; experiment: indirect FACS, FITC-GAH Fc, Raji cells; none 6.8
[13] = biological target: T1, human leukocyte antigen-DR (HLA-DR) on …; experiment: indirect FACS, FITC-GAH Fc, Daudi cells; none 3.1
[14] = biological target: T1, human leukocyte antigen-DR (HLA-DR) on …; experiment: indirect flow cytometry, Namalwa cells, FITC-GAH; none 2.52

B1: hL243γ4P (humanized L243, IgG4/K isotype with hinge mutation Ser241Pro) (antibody, V domains shown)
VH: QVQLQQSGSELKKPGASVKVSCKASGFTFTNYGMNWVKQAPGQGLKWMGWINTYTREPTYADDFKGRFAFSLDTSVSTAYLQISSLKADDTAVYFCARDITAVVPTGFDYWGQGSLVTVSS
VL: DIQLTQSPSSLSASVGDRVTITCRASENIYSNLAWYRQKPGKAPKLLVFAASNLADGVPSRFSGSGSGTDYTFTISSLQPEDIATYYCQHFWTTPWAFGGGTKLQIKR
notes: Same V domains as hL243; human γ4 constant region with Ser241Pro (Kabat numbering) in the hinge, human kappa; also called hL243 (IgG4 isotype)
Geometric Mean Fluorescence [1]: 261
Geometric Mean Fluorescence [2]: 937
Geometric Mean Fluorescence [3]: 972
Geometric Mean Fluorescence [4]: 278
Geometric Mean Fluorescence [5]: 467
Geometric Mean Fluorescence [6]: 467
Geometric Mean Fluorescence [7]: 572
Geometric Mean Fluorescence [8]: 112
Geometric Mean Fluorescence [9]: 261
Geometric Mean Fluorescence [10]: 278
Geometric Mean Fluorescence [11]: 572
Geometric Mean Fluorescence [12]: 972
Geometric Mean Fluorescence [13]: 937
GEO MEAN Fluorescence [14]: 324
